Data reported in patent US20260263638A1, “COMPOSITIONS AND METHODS TO IMPROVE RNA PROPERTIES USING BASE, PHOSPHODIESTER LINKAGE, SUGAR BACKBONE, AND CAP MODIFICATIONS” (The Broad Institute, Inc., priority 2023, published 2026).

What was measured:
eIF3A (Homo sapiens) = experiment: pulldown; conditions: LNA-m7G cap; LNA at position 1; 2'-OMe at next 5 bases; 3'-biotin; SILAC MS, vs m7G cap-0 oligo; may be indirect
XRN2 (Homo sapiens) = experiment: pulldown; conditions: LNA-m7G cap; LNA at position 1; 2'-OMe at next 5 bases; 3'-biotin; SILAC MS, vs m7G cap-0 oligo
eIF4G1 (Homo sapiens) = experiment: pulldown; conditions: LNA-m7G cap; LNA at position 1; 2'-OMe at next 5 bases; 3'-biotin; SILAC MS, vs m7G cap-0 oligo; may be indirect via eIF4E
eIF4A1 (Homo sapiens) = experiment: pulldown; conditions: LNA-m7G cap; LNA at position 1; 2'-OMe at next 5 bases; 3'-biotin; SILAC MS, vs m7G cap-0 oligo; may be indirect
eIF2B (Homo sapiens) = experiment: pulldown; conditions: LNA-m7G cap; LNA at position 1; 2'-OMe at next 5 bases; 3'-biotin; SILAC MS, vs m7G cap-0 oligo
PABPC4 (Homo sapiens) = experiment: pulldown; conditions: LNA-m7G cap; LNA at position 1; 2'-OMe at next 5 bases; 3'-biotin; SILAC MS, vs m7G cap-0 oligo; may be indirect
NCBP1 (Homo sapiens) = experiment: pulldown; conditions: LNA-m7G cap; LNA at position 1; 2'-OMe at next 5 bases; 3'-biotin; SILAC MS, vs m7G cap-0 oligo
eIF4G3 (Homo sapiens) = experiment: pulldown; conditions: LNA-m7G cap; LNA at position 1; 2'-OMe at next 5 bases; 3'-biotin; SILAC MS, vs m7G cap-0 oligo; may be indirect
eIF4E (Homo sapiens) = experiment: pulldown; conditions: LNA-m7G cap; LNA at position 1; 2'-OMe at next 5 bases; 3'-biotin; SILAC MS, vs m7G cap-0 oligo; HEK293T lysate
PARN (Homo sapiens) = experiment: pulldown; conditions: LNA-m7G cap; LNA at position 1; 2'-OMe at next 5 bases; 3'-biotin; SILAC MS, vs m7G cap-0 oligo
PABPC1 (Homo sapiens) = experiment: pulldown; conditions: LNA-m7G cap; LNA at position 1; 2'-OMe at next 5 bases; 3'-biotin; SILAC MS, vs m7G cap-0 oligo; may be indirect
CASC3 (Homo sapiens) = experiment: pulldown; conditions: LNA-m7G cap; LNA at position 1; 2'-OMe at next 5 bases; 3'-biotin; SILAC MS, vs m7G cap-0 oligo
DHX15 (Homo sapiens) = experiment: pulldown; conditions: LNA-m7G cap; LNA at position 1; 2'-OMe at next 5 bases; 3'-biotin; SILAC MS, vs m7G cap-0 oligo
HeLa cells = experiment: Time-course dual luciferase assay of modified Firefly luciferase mRNA (Renilla control); assay type: cell-based; conditions: from 8~72 hours
reticulocytes = experiment: Plasma reticulocyte counting by flow cytometry; assay type: in vivo; conditions: mice; day 6 post-administration
Experimental: (§1) mRNA diluted in 50 mM citrate buffer (pH 4) and lipid mix (37.5 mM in ethanol) containing 50 mol % SM-102, 10 mol % DSPC, 38.5 mol % Cholesterol, and 1.5 mol % DMG-PEG2000 were assembled into LNP using a NanoAssemblr Spark instrument [Precision Nanosystems]. Upon formulation, mRNA-LNPs were diluted in 12 mL 1×PBS solution and the buffer was exchanged by concentrating with a 30 kDa spin filter [MilliporeSigma, UFC901008] to remove residue ethanol. Concentrations and encapsulation efficiency of mRNA were determined using Quant-it RiboGreen RNA Assay Kit [ThermoFisher, R11490]. 1 μg NanoLuc or hEPO mRNA-LNP in a total volume of 100 μL was injected through retro orbital injection into each mouse. Four mice were used for each condition of each experiment (NanoLuc imaging, hEPO ELISA, and reticulocyte counting). For NanoLuc imaging, PBS injection was used as negative control. For hEPO/reticulocyte experiments, poly(C)-LNP complex was used as negative control.
10 μL […] sample was added into 1 mL of the Reticulocyte Reagent [BD Bioscience] at the indicated time points and the mixture was incubated at room temperature for 30 minutes with protection from light. The samples were analyzed with Beckman CytoFLEX LX Flow Cytometer with 100,000-event records for each sample. Thiazole orange positive cells are defined as reticulocytes.

[1] = Quantification of plasma hEPO by ELISA after mRNA-LNP injection; assay type: in vivo; conditions: mice, hEPO mRNA-LNP retro-orbital
Experimental: All animal procedures followed animal care guidelines approved by the Institutional Animal Care and Use Committee (IACUC) of the Broad Institute of MIT and Harvard under animal protocol #0255-08-19. Animal experiments were conducted in compliance with IACUC policies and NIH guidelines. The BALB/cj (male, 6~8 weeks old) mice used for in vivo NanoLuc assay in this study were purchased from The Jackson Laboratory (JAX). The C57BL/6 mice (female, 7 weeks old), used for hEPO assay in this study were purchased from The Jackson Laboratory (JAX).
as §1
At the indicated time points, approximately 100 μL of blood was collected with EDTA-coated capillary tubes from each mouse and then transferred to an EDTA-coated tube. The collected blood samples were centrifuged at 2000 g for 10 min, followed by transferring the resulting plasma into another tube. The hEPO levels in the plasma samples were measured by Human Erythropoietin (EPO) ELISA kit [LEGEND MAX, 442907]. Final concentrations for hEPO were adjusted based on the volume and dilution fold.

[2] = system: plasma tumor necrosis factor alpha (TNF-α); design: species or system mice; conditions: mouse, in vivo
Experimental: (§2) To evaluate the in vivo toxicity and immune response, plasma collected on day 7 post mRNA-LNP administration for the hEPO group. ALT and TNF-alpha were measured using ELISA kits for ALT [G-Biosciences, IT5508] and TNF-alpha [R&D Systems, MTA00B] per manufacturer's protocols.

[3] = system: plasma alanine transaminase (ALT); experiment: In vivo toxicity assay: plasma ALT ELISA; conditions: mice; hEPO mRNA-LNP groups
Experimental: as §2

[4] = target: tRNA guanine transglycosylase (TGT) (UniProt P0A847 P0A847:1-375); experiment: site-specific preQ1-azide labeling of hairpin in circRNA; 20 mM MgCl2, pH 7.3, 37 C; conditions: tags: His tag, expressed in E. coli
Experimental: CircRNA bearing a TGT hairpin was synthesized as described above. TGT enzyme was expressed in E. Coli as previously described in Alexander et al. “Site-specific covalent labeling of RNA by enzymatic transglycosylation.” J. Am. Chem. Soc. […] To label the circRNA with preQ1-azide, 1 μM of circRNA, 100 µM of preQ1-azide, 10 μM of TGT, 10 μL of SUPERase-In RNase inhibitor were incubated in 1× TGT reaction buffer (100 mM HEPES, pH 7.3, 5 mM DTT, and 20 mM MgCl₂) in a total of 100 μL reaction at 37° C. for 2 hours. The labeled circRNA was purified and subjected to click reaction with Bn7G-capped alkyne labeled oligo using the general condition for click reaction for 30 mins. The circRNA was then subjected to RP-HPLC purification to remove the linearized portions (method 3), pooled and desalted, and subjected to another round of RP-HPLC purification to isolate the QRNA product (method 4). QRNA product was characterized by RNase H assay with 2 primers upstream/downstream the TGT site.

eIF4E = eIF4E (UniProt P06730 P06730:1-217); experiment: EMSA; 50 mM KCl, 10 mM Tris-HCl pH 7.6, 4 C; confirmed by competitive EMSA against mono-capped (FIG. 9H); conditions: tags: His tag; Cayman Chemical 25150; label: AF647-cytidine; branched
Experimental: Capped oligonucleotides were labeled on the 3′ end using AF647 labeled cytidine-5′-phosphate-3′-(6-aminohexyl) phosphate [Jena Bioscience, NU-1706-AF647] and T4 RNA ligase ligated AF647-labeled cytidine onto the capped oligos using manufacturer's protocols. Oligos were then incubated in the binding buffer (1 mM DTT, 50 mM KCl, 10 mM Tris-HCl (pH 7.6), Novex Hi-Density TBE Sample Buffer [Invitrogen, LC6678]) with varying eIF4E-His [Cayman Chemical Inc, 25150] concentrations prepared by sequential dilutions from the stock solution. The oligos and […] were incubated at 4° C. for 30 mins and characterized by EMSA with Novex TBE Gels, 4-20% [Invitrogen, EC6225BOX] at 4° C. AF647 labeled oligos were imaged with BioRad ChemiDoc MP Imaging System [12003154] and band intensities were quantified using ImageJ. For Kd calculation, the proportions of bound were plotted against eIF4E concentration using GraphPad Prism (Specific binding with Hill slope).
To gain insights into the mechanism of how the topologically branched internal cap initiates mRNA translation, Applicant used fluorophore-labeled mono- or dual-capped oligonucleotides and measured their affinity to eIF4E through EMSA.

Chain of tRNA guanine transglycosylase (TGT) (P0A847 whole entry, one chain of several): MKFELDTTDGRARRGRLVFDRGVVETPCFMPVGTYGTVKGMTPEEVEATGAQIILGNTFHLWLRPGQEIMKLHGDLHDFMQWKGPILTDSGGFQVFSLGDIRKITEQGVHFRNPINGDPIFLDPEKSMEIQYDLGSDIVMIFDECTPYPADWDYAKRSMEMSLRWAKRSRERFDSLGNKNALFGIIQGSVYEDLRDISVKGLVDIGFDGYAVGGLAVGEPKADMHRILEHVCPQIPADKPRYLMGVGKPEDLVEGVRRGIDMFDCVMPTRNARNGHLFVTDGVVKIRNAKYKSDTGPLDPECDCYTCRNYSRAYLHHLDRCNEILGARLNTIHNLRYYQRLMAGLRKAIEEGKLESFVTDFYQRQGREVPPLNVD
Chain of eIF4E (P06730 whole entry, one chain of several): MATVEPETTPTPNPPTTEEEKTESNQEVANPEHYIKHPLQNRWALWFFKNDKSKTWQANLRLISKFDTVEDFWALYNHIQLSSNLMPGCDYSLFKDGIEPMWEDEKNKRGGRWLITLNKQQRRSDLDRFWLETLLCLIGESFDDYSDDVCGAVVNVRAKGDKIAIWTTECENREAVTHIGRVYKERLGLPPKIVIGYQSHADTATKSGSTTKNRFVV

SILAC modified 20-nt oligo
binding signal (fold enrichment) (eIF3A (Homo sapiens)): 5.8
binding signal (fold enrichment) (XRN2 (Homo sapiens)): 10.2
binding signal (fold enrichment) (eIF4G1 (Homo sapiens)): 42.1
binding signal (fold enrichment) (eIF4A1 (Homo sapiens)): 2.5
binding signal (fold repulsion) (eIF2B (Homo sapiens)): 5.1
binding signal (fold enrichment) (PABPC4 (Homo sapiens)): 5.5
binding signal (fold repulsion) (NCBP1 (Homo sapiens)): 32.8
binding signal (fold enrichment) (eIF4G3 (Homo sapiens)): 27.9
binding signal (fold enrichment) (eIF4E (Homo sapiens)): 15.2
binding signal (fold enrichment) (PARN (Homo sapiens)): 8
binding signal (fold enrichment) (PABPC1 (Homo sapiens)): 5.5
binding signal (fold enrichment) (CASC3 (Homo sapiens)): 5.4
binding signal (fold repulsion) (DHX15 (Homo sapiens)): 15.1

construct 39: two LNAm7G caps; /5Phos/+AmGmAmGmAmUrArA/3AzideN/ clicked to /5Phos/+AmGmAmUmAmArA/i50CTdU/rArArArArArA (SEQ ID NO: 50) (AGATAAATAAAAAA; two LNA-m7G caps; branched click linkage; 2'-OMe; modified_base 1 OTHER; 5'-phosphate modified Locked nucleic acid; modified_base 2 OTHER; 2'-O-methyl modified nucleotide; modified_base 3 OTHER; modified_base 4 OTHER; modified_base 5 OTHER; modified_base 6 OTHER; modified_base 8 OTHER; 5-Octadiynyl modified uracil; m)
Protein expression boost vs conventional linear mRNA with only m7G-rG cap and m1Ψ (HeLa cells): 5.5~99 fold

construct S20: hEPO mRNA, two LNAm7G caps, LNA-2OMe 5′ UTR, PS-2MOE_ddC tail, in LNP (SEQ ID NO: 137) (AGATAAATAAAAAA; mRNA with two LNA-m7G caps, LNA/2'-OMe UTR, PS-MOE ddC tail, in LNP, further chemistry not given here)
Increase in reticulocyte counts compared to poly(C)-LNP-treated group (reticulocytes): 64%
Reticulocytes, % of total red blood cells (reticulocytes): 6.4±0.2%
Plasma hEPO expression remained detectable until [1]: 6 days
Time of peak plasma hEPO expression [1]: 6 h
Peak plasma hEPO expression ([1]; 6 hours): 6009±578 mlU/mL
Plasma TNF-α (immunogenicity) [2]: No significant changes
Plasma ALT (toxicity) [3]: No significant changes

B1: TGT recognition hairpin (ssRNA)
RNA: GCAGACUGUAAAUCUGC
binding result [4]: binds

B2: 2xm7G dual-capped branched (31) (ssRNA)
RNA 1: AGAUAAAUAAAAAA
RNA 2: AGAGAUAA
modifications: m7G cap on both 5' ends; second strand 3'-azide clicked to 5-octadiynyl-dU at position 8 of first strand
Kd (eIF4E): 1.41 µM
